Source: article PMC6445127, “WNT5A is transported via lipoprotein particles in the cerebrospinal fluid to regulate hindbrain morphogenesis” (Nature Communications, 2019)

Target: T1, human native APOJ (human, UniProt P10909 23-227; P10909 228-449)
T1 construct: Apolipoprotein J (Clusterin), human, native; also called isolated APOJ protein; Clusterin; source: bought: Biovendor (RD162034025)
Experiment: co-IP; in vitro protein binding assay: 2 μg human native APOJ incubated with 150 ng recombinant WNT5A in 200 μl binding buffer (50 mM Tris pH 7.6, 100 mM NaCl, 1 mM EDTA) overnight at 4 °C; precipitated with corresponding antibody or IgG on DynaBeads; washes with 0.5% NP40
Conditions: both partners purified

T1 sequence (P10909 23-227, chain 1 of 2): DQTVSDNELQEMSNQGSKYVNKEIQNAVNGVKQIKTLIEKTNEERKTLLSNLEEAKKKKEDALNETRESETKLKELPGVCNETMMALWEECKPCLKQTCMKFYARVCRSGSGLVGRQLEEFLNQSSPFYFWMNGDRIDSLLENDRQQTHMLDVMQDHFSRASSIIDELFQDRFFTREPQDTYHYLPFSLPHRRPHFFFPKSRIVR
T1 sequence (P10909 228-449, chain 2 of 2): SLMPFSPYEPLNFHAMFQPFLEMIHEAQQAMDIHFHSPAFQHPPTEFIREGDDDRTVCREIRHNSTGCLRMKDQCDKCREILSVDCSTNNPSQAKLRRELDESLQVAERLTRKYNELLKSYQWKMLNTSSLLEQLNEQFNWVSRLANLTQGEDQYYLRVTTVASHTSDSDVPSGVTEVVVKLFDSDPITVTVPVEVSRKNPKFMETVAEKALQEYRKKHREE

B1: recombinant WNT5A (ligand, UniProt P22725 62-380, looked up)
chain: IIGAQPLCSQLAGLSQGQKKLCHLYQDHMQYIGEGAKTGIKECQYQFRHRRWNCSTVDNTSVFGRVMQIGSRETAFTYAVSAAGVVNAMSRACREGELSTCGCSRAARPKDLPRDWLWGGCGDNIDYGYRFAKEFVDARERERIHAKGSYESARILMNLHNNEAGRRTVYNLADVACKCHGVSGSCSLKTCWLQLADFRKVGDALKEKYDSAAAMRLNSRGKLVQVNSRFNSPTTQDLVYIDPSPDYCVRNESTGSLGTQGRLCNKTSEGMDGCELMCCGRGYDQFKTVQTERCHCKFHWCCYVKCKKCTEIVDQFVCK
notes: recombinant WNT5A, R&D Systems; 'P22725' is printed where a catalogue number would stand; elsewhere the catalogue number 645-WN-010 is printed; WNT5A'; also called rcWNT5A; rcWnt5a; source: bought: R&D Systems
binding result: binds
